Experimental data from PMC3907550.

Key:
[1] = target: HA2His6-tagged Arabidopsis ADK (Arabidopsis) (UniProt Q9LZG0)
[2] = target: HA2His6-tagged Arabidopsis ADK (Arabidopsis) (UniProt Q9LZG0); remark: listed apart in the source

Chain of UniProt Q9LZG0 (Q9LZG0 whole entry): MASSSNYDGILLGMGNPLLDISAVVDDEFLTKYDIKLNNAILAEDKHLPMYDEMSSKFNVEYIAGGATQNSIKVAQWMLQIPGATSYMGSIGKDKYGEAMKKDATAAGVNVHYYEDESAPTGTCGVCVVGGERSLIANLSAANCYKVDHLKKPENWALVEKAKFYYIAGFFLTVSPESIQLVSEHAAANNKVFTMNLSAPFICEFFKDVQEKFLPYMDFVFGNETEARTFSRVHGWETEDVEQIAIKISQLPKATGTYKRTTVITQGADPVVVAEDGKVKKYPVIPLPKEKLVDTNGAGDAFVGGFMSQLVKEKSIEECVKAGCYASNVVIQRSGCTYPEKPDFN

- ADK activity against increasing HA2His6-SnRK1-KD:ADK molar ratio, up to 4∶1 [1]: 90 % of maximum
- ADK activity (labeled 5′-AMP from adenosine and γ32P-ATP) with a two-fold molar excess of HA2His6-SnRK1-KD, against ADK+GFP [2]: 6 fold
Substance: HA2His6-tagged SnRK1 kinase domain (SnRK1-KD; amino acids 1-343) (from UniProt P92958 1-343) (domain or fragment)
